Experiments:
[1] = molecular target: T1, high affinity trimeric IL-2R (IL-2Rα, IL-2Rβ and IL-2Rγ) on HEK-Blue IL-2 cells (UniProt P01589 22-272; P14784 27-551; P31785 23-369); experiment: cell-based or functional assay
T1 sequence (looked up) 1: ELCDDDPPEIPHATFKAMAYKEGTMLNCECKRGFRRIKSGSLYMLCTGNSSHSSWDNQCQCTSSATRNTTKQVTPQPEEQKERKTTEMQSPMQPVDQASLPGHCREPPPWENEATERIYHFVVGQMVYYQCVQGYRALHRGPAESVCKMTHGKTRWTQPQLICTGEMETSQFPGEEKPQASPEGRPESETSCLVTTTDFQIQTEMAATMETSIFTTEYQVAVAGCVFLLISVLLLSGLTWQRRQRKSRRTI
T1 sequence (looked up) 2: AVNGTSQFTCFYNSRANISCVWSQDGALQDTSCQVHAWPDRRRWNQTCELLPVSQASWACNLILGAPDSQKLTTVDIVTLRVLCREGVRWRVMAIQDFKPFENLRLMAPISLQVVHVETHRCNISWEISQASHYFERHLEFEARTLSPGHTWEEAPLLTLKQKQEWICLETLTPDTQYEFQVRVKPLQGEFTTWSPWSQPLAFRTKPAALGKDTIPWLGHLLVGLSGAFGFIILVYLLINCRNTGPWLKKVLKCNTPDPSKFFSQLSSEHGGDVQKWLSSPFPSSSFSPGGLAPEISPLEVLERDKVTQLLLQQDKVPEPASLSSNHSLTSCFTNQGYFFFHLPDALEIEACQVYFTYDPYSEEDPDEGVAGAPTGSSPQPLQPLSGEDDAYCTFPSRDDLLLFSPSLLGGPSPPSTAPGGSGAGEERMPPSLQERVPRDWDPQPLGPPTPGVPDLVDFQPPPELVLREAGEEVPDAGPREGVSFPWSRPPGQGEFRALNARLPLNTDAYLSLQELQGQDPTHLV
T1 sequence (looked up) 3: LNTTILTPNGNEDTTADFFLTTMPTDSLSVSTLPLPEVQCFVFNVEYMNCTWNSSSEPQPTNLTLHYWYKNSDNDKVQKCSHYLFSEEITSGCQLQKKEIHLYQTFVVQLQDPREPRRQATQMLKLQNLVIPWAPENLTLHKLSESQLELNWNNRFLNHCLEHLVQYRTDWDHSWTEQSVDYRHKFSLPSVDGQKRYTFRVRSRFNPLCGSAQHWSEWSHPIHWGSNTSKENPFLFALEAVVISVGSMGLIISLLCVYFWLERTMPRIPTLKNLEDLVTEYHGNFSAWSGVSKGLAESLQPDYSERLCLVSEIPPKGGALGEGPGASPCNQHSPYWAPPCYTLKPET

His-tagged human CD47 = molecular target: T2, His-tagged human CD47 (human, UniProt Q08722 19-139, limits assumed); experiment: BLI, His-CD47 on HIS1K sensor, after MMP-9 treatment
T2 construct: loaded on HIS1K biosensors at 2.5 µg/mL; also called target antigen; not shown: His tag
Procedure: The capacity of the masking domains to inhibit binding activity of the antibody was evaluated by Bio-Layer Interferometry (BLI). […] Binding experiments were performed to evaluate the masking efficiency and the binding recovery after cleavage of the masking domains. BLI was performed on an Octet RED96 system (Sartorius). His-tagged human CD47 was diluted at 2.5 μg/mL in Kinetic Buffer (KB) (Sartorius) and loaded on HIS1K biosensors (anti-His tag antibody biosensors, Sartorius) for 300 seconds. Loaded biosensors were dipped into antibodies diluted at 15 μg/mL in KB for 300 seconds to monitor association. Then, biosensors were transferred in KB for dissociation for 60 seconds. Binding profiles were then analyzed with ForteBio Data Analysis software.

[2] = molecular target: T3, CD47 at the surface of Peak cells (human, UniProt Q08722 19-323); experiment: flow cytometry, Peak cells, after MMP-9 treatment
T3 construct: whole, on cells; also called cell surface CD47
Procedure: Binding activity of antibody-cytokine/receptor fusions before and after cleavage was also evaluated by flow cytometry. Peak cells derived from HEK 293 which are human cells expressing CD47 were used to evaluate masking efficacy and binding recovery to CD47 by flow cytometry. Peak cells were diluted in cold FACS buffer (PBS, 2% BSA) to 1.2×10⁶ cells/mL. 3×10⁵ cells/well were added in a 96 well V-bottom plate. The plate was then centrifugated for 5 min at 1300 rpm, 4° C. Supernatants were removed and cells were washed twice using FACS buffer. A serial dilution of antibody-cytokine/receptor fusions previously digested with MMP-9 or not digested as described above was prepared in FACS buffer. An irrelevant antibody was included. Then, 150 μL of each diluted antibody were added in corresponding well and incubated for 30 min at 4° C. Cells were washed twice with FACS buffer and 100 μL of a mouse anti human Fc-PE conjugated secondary antibody were added and the plate was incubated for 20 min at 4° C. Cells were then washed twice with FACS buffer. Finally, 150 μL of SYTOX blue dead cell stain (ThermoFisher) diluted to 1/5000 in FACS buffer were added before detection by flow cytometry with Cytoflex (Beckman Coulter). Acquisition was performed with 10000 events for each well. Data were analyzed by FlowJo software.

[3] = molecular target: T4, low-moderate affinity dimeric IL-2R (IL-2Rβ and IL-2Rγ) on HEK-Blue CD122/CD132 cells (UniProt P14784 27-551; P31785 23-369, limits assumed); experiment: cell-based or functional assay
T4 sequence (looked up) 1: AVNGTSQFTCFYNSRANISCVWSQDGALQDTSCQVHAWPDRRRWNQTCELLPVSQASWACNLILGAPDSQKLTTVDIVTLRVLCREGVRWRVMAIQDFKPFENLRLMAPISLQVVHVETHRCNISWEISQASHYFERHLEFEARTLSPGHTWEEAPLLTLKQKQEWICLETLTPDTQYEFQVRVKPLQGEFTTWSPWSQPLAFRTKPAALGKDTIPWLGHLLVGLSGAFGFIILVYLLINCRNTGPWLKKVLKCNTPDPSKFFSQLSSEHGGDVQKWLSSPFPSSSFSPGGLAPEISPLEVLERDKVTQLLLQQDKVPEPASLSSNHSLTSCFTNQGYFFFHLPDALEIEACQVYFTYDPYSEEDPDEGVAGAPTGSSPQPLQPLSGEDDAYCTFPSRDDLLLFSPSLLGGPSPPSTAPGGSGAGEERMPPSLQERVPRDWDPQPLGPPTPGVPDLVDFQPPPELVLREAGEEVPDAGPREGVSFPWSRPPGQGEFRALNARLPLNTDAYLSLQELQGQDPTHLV
T4 sequence (looked up) 2: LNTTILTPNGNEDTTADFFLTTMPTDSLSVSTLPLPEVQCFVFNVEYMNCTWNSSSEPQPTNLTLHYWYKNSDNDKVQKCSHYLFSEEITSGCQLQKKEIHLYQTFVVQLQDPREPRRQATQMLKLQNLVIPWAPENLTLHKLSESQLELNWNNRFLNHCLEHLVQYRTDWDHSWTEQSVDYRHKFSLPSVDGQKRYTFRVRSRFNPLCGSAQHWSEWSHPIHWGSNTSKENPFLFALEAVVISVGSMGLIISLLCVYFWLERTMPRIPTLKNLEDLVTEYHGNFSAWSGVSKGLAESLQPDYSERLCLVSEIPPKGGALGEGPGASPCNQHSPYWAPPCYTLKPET

Row | Binder | EC50 after cleavage IL-2, HEK Blue IL-2 αβγ reporter assay [1] | Binding after cleavage (BLI) (His-tagged human CD47) | EC50 [2] | EC50 after cleavage IL-2, HEK Blue IL-2 βγ reporter assay [3]
1 | Construct No 770 after cleavage by MMP-9 (antibody, MMP-9 digest of m28; the sample also holds the released IL-2Rα, IL-2 C125S and IL-2Rβ; also called n770 after cleavage; not shown: remnant of CM1 and linker after MMP-9 cleavage) light: DIQMTQSPSSLSASVGDRVTITCNVDQVIANWLNWYQQKPGKAPKLLIYAASSLQSGVPSRFSGSGSGTDFTLTISSLQPEDFATYYCQQMHPRAPKQFGQGTKVEIKRTVAAPSVFIFPPSDEQLKSGTASVVCLLNNFYPREAKVQWKVDNALQSGNSQESVTEQDSKDSTYSLSSTLTLSKADYEKHKVYACEVTHQGLSSPVTKSFNRGEC heavy: not shown | 0.02 nM | 1.7 nm | 0.5 nM | 0.01 nM
2 | Construct No 870 after cleavage by MMP-9 (antibody, MMP-9 digest of m33; the sample also holds the released IL-2Rγ, IL-2 and IL-2Rα; also called n870 after cleavage; not shown: remnant of CM1 and linker after MMP-9 cleavage) light: DIQMTQSPSSLSASVGDRVTITCNVDQVIANWLNWYQQKPGKAPKLLIYAASSLQSGVPSRFSGSGSGTDFTLTISSLQPEDFATYYCQQMHPRAPKQFGQGTKVEIKRTVAAPSVFIFPPSDEQLKSGTASVVCLLNNFYPREAKVQWKVDNALQSGNSQESVTEQDSKDSTYSLSSTLTLSKADYEKHKVYACEVTHQGLSSPVTKSFNRGEC heavy: not shown | 0.01 nM | 1.3 nm | 1.3 nM | 0.03 nM
3 | Construct No 780 after cleavage by MMP-9 (antibody, MMP-9 digest of m29; the sample also holds the released IL-2Rα, IL-2 F42A and IL-2Rβ; also called n780 after cleavage; not shown: remnant of CM1 and linker after MMP-9 cleavage) light: DIQMTQSPSSLSASVGDRVTITCNVDQVIANWLNWYQQKPGKAPKLLIYAASSLQSGVPSRFSGSGSGTDFTLTISSLQPEDFATYYCQQMHPRAPKQFGQGTKVEIKRTVAAPSVFIFPPSDEQLKSGTASVVCLLNNFYPREAKVQWKVDNALQSGNSQESVTEQDSKDSTYSLSSTLTLSKADYEKHKVYACEVTHQGLSSPVTKSFNRGEC heavy: not shown | 0.02 nM | 1.7 nm | 1 nM | 0.01 nM
4 | Construct No 651 after cleavage by MMP-9 (antibody, MMP-9 digest of m22; the sample also holds the released IL-2Rα, IL-2 and IL-2Rβ; also called n651 after cleavage; not shown: remnant of CM1 and linker after MMP-9 cleavage) light: DIQMTQSPSSLSASVGDRVTITCNVDQVIANWLNWYQQKPGKAPKLLIYAASSLQSGVPSRFSGSGSGTDFTLTISSLQPEDFATYYCQQMHPRAPKQFGQGTKVEIKRTVAAPSVFIFPPSDEQLKSGTASVVCLLNNFYPREAKVQWKVDNALQSGNSQESVTEQDSKDSTYSLSSTLTLSKADYEKHKVYACEVTHQGLSSPVTKSFNRGEC heavy: not shown | 0.02 nM | 1.6 nm | 0.7 nM | 0.01 nM
5 | Construct No 880 after cleavage by MMP-9 (antibody, MMP-9 digest of m34; the sample also holds the released IL-2Rγ-(GGGGS)2-IL-2 fusion (no cleavable linker between the two) and IL-2Rα; also called n880 after cleavage; not shown: remnant of CM1 and linker after MMP-9 cleavage) light: DIQMTQSPSSLSASVGDRVTITCNVDQVIANWLNWYQQKPGKAPKLLIYAASSLQSGVPSRFSGSGSGTDFTLTISSLQPEDFATYYCQQMHPRAPKQFGQGTKVEIKRTVAAPSVFIFPPSDEQLKSGTASVVCLLNNFYPREAKVQWKVDNALQSGNSQESVTEQDSKDSTYSLSSTLTLSKADYEKHKVYACEVTHQGLSSPVTKSFNRGEC heavy: not shown | 0.04 nM | 1.1 nm | 2.6 nM | 0.02 nM
6 | Construct No 800 after cleavage by MMP-9 (antibody, MMP-9 digest of m31; the sample also holds the released IL-2Rα, IL-2 Q126T and IL-2Rβ; also called n800 after cleavage; not shown: remnant of CM1 and linker after MMP-9 cleavage) light: DIQMTQSPSSLSASVGDRVTITCNVDQVIANWLNWYQQKPGKAPKLLIYAASSLQSGVPSRFSGSGSGTDFTLTISSLQPEDFATYYCQQMHPRAPKQFGQGTKVEIKRTVAAPSVFIFPPSDEQLKSGTASVVCLLNNFYPREAKVQWKVDNALQSGNSQESVTEQDSKDSTYSLSSTLTLSKADYEKHKVYACEVTHQGLSSPVTKSFNRGEC heavy: not shown | 0.48 nM | 1.5 nm | 1.5 nM | 1.14 nM
7 | Construct No 676 after cleavage by MMP-9 (antibody, MMP-9 digest of m23; the sample also holds the released IL-2Rα-(GGGGS)2-IL-2 fusion (no cleavable linker between the two) and IL-2Rβ; also called n676 after cleavage; not shown: remnant of CM1 and linker after MMP-9 cleavage) light: DIQMTQSPSSLSASVGDRVTITCNVDQVIANWLNWYQQKPGKAPKLLIYAASSLQSGVPSRFSGSGSGTDFTLTISSLQPEDFATYYCQQMHPRAPKQFGQGTKVEIKRTVAAPSVFIFPPSDEQLKSGTASVVCLLNNFYPREAKVQWKVDNALQSGNSQESVTEQDSKDSTYSLSSTLTLSKADYEKHKVYACEVTHQGLSSPVTKSFNRGEC heavy: not shown | 0.04 nM | 1.5 nm | 1 nM | 0.03 nM
8 | Construct No 1030 after cleavage by MMP-9 (antibody, MMP-9 digest of m37; the sample also holds the released IL-2 Q126T and IL-2Rα; also called n1030 after cleavage; not shown: remnant of CM1 and linker after MMP-9 cleavage) light: DIQMTQSPSSLSASVGDRVTITCNVDQVIANWLNWYQQKPGKAPKLLIYAASSLQSGVPSRFSGSGSGTDFTLTISSLQPEDFATYYCQQMHPRAPKQFGQGTKVEIKRTVAAPSVFIFPPSDEQLKSGTASVVCLLNNFYPREAKVQWKVDNALQSGNSQESVTEQDSKDSTYSLSSTLTLSKADYEKHKVYACEVTHQGLSSPVTKSFNRGEC heavy: not shown | 0.23 nM | 1.3 nm | 0.8 nM | 
9 | Construct No 790 after cleavage by MMP-9 (antibody, MMP-9 digest of m30; the sample also holds the released IL-2Rα, IL-2 D20T and IL-2Rβ; also called n790 after cleavage; not shown: remnant of CM1 and linker after MMP-9 cleavage) light: DIQMTQSPSSLSASVGDRVTITCNVDQVIANWLNWYQQKPGKAPKLLIYAASSLQSGVPSRFSGSGSGTDFTLTISSLQPEDFATYYCQQMHPRAPKQFGQGTKVEIKRTVAAPSVFIFPPSDEQLKSGTASVVCLLNNFYPREAKVQWKVDNALQSGNSQESVTEQDSKDSTYSLSSTLTLSKADYEKHKVYACEVTHQGLSSPVTKSFNRGEC heavy: not shown | 0.04 nM | 1.4 nm | 1.6 nM | 0.07 nM
10 | Construct No 830 after cleavage by MMP-9 (antibody, MMP-9 digest of m27 (K33); the sample also holds the released IL-2Rα, IL-2 and IL-2Rβ; also called n830 after cleavage; not shown: remnant of CM1 and linker after MMP-9 cleavage) light: DIQMTQSPSSLSASVGDRVTITCRASQSISSYLNWYQQKPGKAPKLLIYAASSLQSGVPSRFSGSGSGTDFTLTISSLQPEDFATYYCQQFHKRSPQKFGQGTKVEIKRTVAAPSVFIFPPSDEQLKSGTASVVCLLNNFYPREAKVQWKVDNALQSGNSQESVTEQDSKDSTYSLSSTLTLSKADYEKHKVYACEVTHQGLSSPVTKSFNRGEC heavy: not shown | 0.01 nM | 1.7 nm |  | 0.01 nM

Source: US20240254223A1 (NOVIMMUNE, published 2024)
